Assay results reported in article PMC4509971.

Biological target: RNH domain of HIV-1 reverse transcriptase (RT residues 427-560) with E438N and T477A (HIV-1)
Assay: SEC-MALS

Substance: RNH domain of HIV-1 reverse transcriptase (RT residues 427-560) with E438N and T477A (domain or fragment)
- stoichiometry N: 2
